The values below come from patent publication US20220056087A1 (GLIKNIK, published 2022).

B7: mouse FcγRIIIA (immobilized on CM4 chip) (receptor, UniProt P08508 31-215, looked up)
chain: ALPKAVVKLDPPWIQVLKEDMVTLMCEGTHNPGNSSTQWFHNGRSIRSQVQASYTFKATVNDSGEYRCQMEQTRLSDPVDLGVISDWLLLQTPQRVFLEGETITLRCHSWRNKLLNRISFFHNEKSVRYHHYKSNFSIPKANHSHSGDYYCKGSLGSTQHQSKPVTITVQDPATTSSISLVWYHT
notes: also called mouse FcγR3A
B10: mouse IgG2a Fc homodimers (other, UniProt P01863 98-330, looked up)
chain: EPRGPTIKPCPPCKCPAPNLLGGPSVFIFPPKIKDVLMISLSPIVTCVVVDVSEDDPDVQISWFVNNVEVHTAQTQTHREDYNSTLRVVSALPIQHQDWMSGKEFKCKVNNKDLPAPIERTISKPKGSVRAPQVYVLPPPEEEMTKKQVTLTCMVTDFMPEDIYVEWTNNGKTELNYKNTEPVLDSDGSYFMYSKLRVEKKNWVERNSYSCSVVHEGLHNHHTTKSFSRTPGK
notes: domain: Fc; also called IgG2a controls; IgG2a Fc control
B12: mouse FcγRIIB (immobilized on CM4 chip) (receptor, UniProt P08101 30-207, looked up)
chain: THDLPKAVVKLEPPWIQVLKEDTVTLTCEGTHNPGNSSTQWFHNGRSIRSQVQASYTFKATVNDSGEYRCQMEQTRLSDPVDLGVISDWLLLQTPQLVFLEGETITLRCHSWRNKLLNRISFFHNEKSVRYHHYSSNFSIPKANHSHSGDYYCKGSLGRTLHQSKPVTITVQGPKSSR
notes: also called mouse FcγR2b

In one test the target is T1, G001 (native IgG1 Fc) (human, UniProt P01857-1 99-330 = IgG part).
T1 construct: domain: Fc; also called IgG1 Fc control; homodimeric monomer of IgG1 Fc
Briefly: BLI (Octet 96 Red), receptor on sensor, G001 in solution. As to the method: For binding analysis of mouse protein, His-tagged mouse FcγRII (R&D system cat #1460-CD) and FcγRIII R&D system cat #1960) were separately loaded on anti-penta-His Biosensors (ForteBio cat #18-5077) at 10 ug/ml in 1× kinetic analysis buffer (ForteBio cat #18-5032). For binding analysis of human protein, His-tagged human FcγRIIb (R&D system cat #1875-CD) and FcγRIIIa R&D system cat #4325-Fc) were separately loaded on anti-penta-His Biosensors (ForteBio cat #18-5077) at 10 ug/ml in 1× kinetic analysis buffer (ForteBio cat #18-5032). Following sensor tip loading protein association was measured by transfer of tips to preparations of either monomeric fraction (over a range of concentrations) or the multimeric fractions (over a range of concentrations) in 1× kinetics analysis buffer and dissociation was measured by transfer of sensor tips to 1× kinetics buffer. Analysis was as described (Data Analysis User Guide 6.4ForteBio). Analysis was standardized as described above assigning a MW of 50 kD to homodimers and 150 kD to all other protein preparations.

Test [1] deals with T2, mouse SIGN-R1 (immobilized on CM4 chip) (mouse, UniProt Q8CJ91 74-325, limits assumed).
T2 sequence (looked up): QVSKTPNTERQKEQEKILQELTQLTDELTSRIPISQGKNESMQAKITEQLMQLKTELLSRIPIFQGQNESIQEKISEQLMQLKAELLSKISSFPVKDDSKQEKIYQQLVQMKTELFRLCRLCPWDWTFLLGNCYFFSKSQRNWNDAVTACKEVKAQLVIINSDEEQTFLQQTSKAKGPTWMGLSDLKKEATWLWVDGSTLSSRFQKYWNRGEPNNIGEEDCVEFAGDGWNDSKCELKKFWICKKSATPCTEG
Briefly: SPR (Biacore) as in Example 4, SIGN-R1 on the chip. Here is the method: (§1) FcγRIIIA, FcγRIIB and SIGN-R1 receptors were immobilized to a CM4 chip using amine immobilization to 560, 500, and 1000RU, respectively to compensate for protein size.
(§2) Regeneration was achieved by a 10 sec injection of 1M MgCl at 100 ul/min, followed by a brief wash with running buffer. KDs were calculated using T100 evaluation software.
(§3) M045F was first gel fractionated using an AktaXpress protein purification system and a GE HiLoad 16/60 Superdex 200 prep grade column.
(In general: Surface plasmon resonance follows binding to a sensor surface in real time, without labels.)

In test [2] the target is T2, mouse SIGN-R1 (immobilized on CM4 chip). Briefly: SPR (Biacore) as in Example 4, SIGN-R1 on the chip; the sheet itself says the value cannot be accurately calculated; traces nearly flat. As to the method: as §1, §2, §3
The target in test [3] is B10. Briefly: SPR (Biacore), receptor amine-coupled to a CM4 chip; panel 'Mse FcR3A'. Here is the method: as §1, §2
The target in test [4] is B12. Briefly: SPR (Biacore), receptor amine-coupled to a CM4 chip, analyte 500 nM to 1.9 nM; panel 'Mse FcR2B'. Here is the method:
as §1, §2

Test [5] concerns the target T2, mouse SIGN-R1 (immobilized on CM4 chip). Briefly: SPR (Biacore), receptor amine-coupled to a CM4 chip, analyte 500 nM to 1.9 nM; panel 'Mse SIGN-R1'. As to the method:
as §1, §2

Test [6] has the same target. Briefly: SPR (Biacore) as in Example 4, SIGN-R1 on the chip; the sheet itself says the value cannot be accurately calculated; traces flat. As to the method: as §1, §2, §3
For test [7], the target named is B10. Briefly: SPR (Biacore), receptor amine-coupled to a CM4 chip; panel 'Mse FcR2B'. As to the method:
as §1, §2

In test [8] the target is B7. Briefly: SPR (Biacore), receptor amine-coupled to a CM4 chip, analyte 500 nM to 1.9 nM; panel 'Mse FcR3A'. Here is the method:
as §1, §2

B1: Cynomolgus FcγRIIIa (receptor, UniProt Q8SPW2 17-208, looked up)
chain: GMRAEDLPKAVVFLEPQWYRVLEKDRVTLKCQGAYSPEDNSTRWFHNESLISSQTSSYFIAAARVNNSGEYRCQTSLSTLSDPVQLEVHIGWLLLQAPRWVFKEEESIHLRCHSWKNTLLHKVTYLQNGKGRKYFHQNSDFYIPKATLKDSGSYFCRGLIGSKNVSSETVNITITQDLAVSSISSFFPPGYQ
Broadly, the kon is the rate constant with which the complex forms. For B1, the kon in the test with G001 (native IgG1 Fc) is 124000 M⁻¹ s⁻¹.

B2: Cynomolgus FcγRIIb (receptor)
chain: TPAAPPKAVLKLEPPWINVLREDSVTLTCGGAHSPDSDSTQWFHNGNLIPTHTQPSYRFKANNNDSGEYRCQTGRTSLSDPVHLTVLSEWLALQTPHLEFREGETIMLRCHSWKDKPLIKVTFFQNGKSKKFSHMDPNFSIPQANHSHSGDYHCTGNIGYTPYSSKPVTITVQVP
One may read the Kd as the free concentration of one partner at which half of the binding sites on the other are occupied at equilibrium, for simple one-to-one binding. B2 showed a Kd with G001 (native IgG1 Fc) of 2040 nM.

B3: M045c stradomer (Fc fusion)
chain: DEPRGPTIKPCPPCKCPAPNLLGGPSVFIFPPKIKDVLMISLSPIVTCVVVDVSEDDPDVQISWFVNNVEVHTAQTQTHREDYNSTLRVVSALPIQHQDWMSGKEFKCKVNNKDLPAPIERTISKPKGSVRAPQVYVLPPPEEEMTKKQVTLTCMVTDFMPEDIYVEWTNNGKTELNYKNTEPVLDSDGSYFMYSKLRVEKKNWVERNSYSCSVVHEGLHNHHTTKSFSRTPGKERKCCVECPPCP
notes: Murine counterpart of G045c; The entry may include a leader that is cleaved from the secreted protein; Mix of homodimers and multimers
The molecule B3 gave a Kd in test [1] of 334 nM.

B4: M045 F2 (Fc fusion)
stradomer monomer: DEPRGPTIKPCPPCKCPAPNLLGGPSVFIFPPKIKDVLMISLSPIVTCVVVDVSEDDPDVQISWFVNNVEVHTAQTQTHREDYNSTLRVVSALPIQHQDWMSGKEFKCKVNNKDLPAPIERTISKPKGSVRAPQVYVLPPPEEEMTKKQVTLTCMVTDFMPEDIYVEWTNNGKTELNYKNTEPVLDSDGSYFMYSKLRVEKKNWVERNSYSCSVVHEGLHNHHTTKSFSRTPGKERKCCVECPPCP
notes: also called lower molecular weight multimer fraction of M045
In turn, B4 showed a Kd in test [1] of 91.2 nM.

B5: M045 F3 (Fc fusion)
stradomer monomer: DEPRGPTIKPCPPCKCPAPNLLGGPSVFIFPPKIKDVLMISLSPIVTCVVVDVSEDDPDVQISWFVNNVEVHTAQTQTHREDYNSTLRVVSALPIQHQDWMSGKEFKCKVNNKDLPAPIERTISKPKGSVRAPQVYVLPPPEEEMTKKQVTLTCMVTDFMPEDIYVEWTNNGKTELNYKNTEPVLDSDGSYFMYSKLRVEKKNWVERNSYSCSVVHEGLHNHHTTKSFSRTPGKERKCCVECPPCP
notes: also called homodimer fraction of M045
Consider B5, for which the equilibrium dissociation constant (Kd) in test [2] was 11000 nM.

B6: M045 F1 (highest molecular weight multimer fraction of M045c) (Fc fusion)
chain: DEPRGPTIKPCPPCKCPAPNLLGGPSVFIFPPKIKDVLMISLSPIVTCVVVDVSEDDPDVQISWFVNNVEVHTAQTQTHREDYNSTLRVVSALPIQHQDWMSGKEFKCKVNNKDLPAPIERTISKPKGSVRAPQVYVLPPPEEEMTKKQVTLTCMVTDFMPEDIYVEWTNNGKTELNYKNTEPVLDSDGSYFMYSKLRVEKKNWVERNSYSCSVVHEGLHNHHTTKSFSRTPGKERKCCVECPPCP
notes: The entry may include a leader; also called Fraction 1; M045 Fraction 1
For B6, the dissociation constant (Kd) in test [1] was found to be 90.9 nM.

Molecule B7 showed a Kd in [3] of 80.1 nM.

B8: His-tagged mouse FcγRIII (R&D system cat #1960) (receptor, UniProt P08508 31-215, looked up)
chain: ALPKAVVKLDPPWIQVLKEDMVTLMCEGTHNPGNSSTQWFHNGRSIRSQVQASYTFKATVNDSGEYRCQMEQTRLSDPVDLGVISDWLLLQTPQRVFLEGETITLRCHSWRNKLLNRISFFHNEKSVRYHHYKSNFSIPKANHSHSGDYYCKGSLGSTQHQSKPVTITVQDPATTSSISLVWYHT
notes: Bought protein; also called Mouse FcyRIII
Regarding B8, binding with G001 (native IgG1 Fc) was characterised by a dissociation constant (Kd) of 4180 nM.

B9: M019 stradomer (Fc fusion)
chain: ERKCCVECPPCPEPRGPTIKPCPPCKCPAPNLLGGPSVFIFPPKIKDVLMISLSPIVTCVVVDVSEDDPDVQISWFVNNVEVHTAQTQTHREDYNSTLRVVSALPIQHQDWMSGKEFKCKVNNKDLPAPIERTISKPKGSVRAPQVYVLPPPEEEMTKKQVTLTCMVTDFMPEDIYVEWTNNGKTELNYKNTEPVLDSDGSYFMYSKLRVEKKNWVERNSYSCSVVHEGLHNHHTTKSFSRTPGK
notes: Murine counterpart of G019 (N-terminal IgG2 hinge multimerization domain); The entry may include a leader
Molecule B9 registered a Kd in test [4] of 45.3 nM. In addition, the binding result in [5] was “binds”. For the molecule B10, the equilibrium dissociation constant (Kd) in test [6] is 132 nM.

B11: His-tagged human FcγRIIb (R&D system cat #1875-CD) (receptor, UniProt P31994 46-217, looked up)
chain: APPKAVLKLEPQWINVLQEDSVTLTCRGTHSPESDSIQWFHNGNLIPTHTQPSYRFKANNNDSGEYTCQTGQTSLSDPVHLTVLSEWLVLQTPHLEFQEGETIVLRCHSWKDKPLVKVTFFQNGKSKKFSRSDPNFSIPQANHSHSGDYHCTGNIGYTLYSSKPVTITVQAP
notes: Bought protein
In turn, B11 showed a dissociation constant (Kd) in the test with G001 (native IgG1 Fc) of 1310 nM. In the case of B12, in [7], binding was put at a Kd of 642 nM.

B13: His-tagged mouse FcγRII (R&D system cat #1460-CD) (receptor, UniProt P08101 30-207, looked up)
chain: THDLPKAVVKLEPPWIQVLKEDTVTLTCEGTHNPGNSSTQWFHNGRSIRSQVQASYTFKATVNDSGEYRCQMEQTRLSDPVDLGVISDWLLLQTPQLVFLEGETITLRCHSWRNKLLNRISFFHNEKSVRYHHYSSNFSIPKANHSHSGDYYCKGSLGRTLHQSKPVTITVQGPKSSR
notes: Bought protein; also called Mouse FcγRIIb; Mouse FcyRII
In the test with G001 (native IgG1 Fc), B13 displayed a Kd of 1510 nM.

B14: M028 stradomer (Fc fusion)
chain: SIKQIEDKIEEILSKIYHIENEIARIKKLIGERGEPRGPTIKPCPPCKCPAPNLLGGPSVFIFPPKIKDVLMISLSPIVTCVVVDVSEDDPDVQISWFVNNVEVHTAQTQTHREDYNSTLRVVSALPIQHQDWMSGKEFKCKVNNKDLPAPIERTISKPKGSVRAPQVYVLPPPEEEMTKKQVTLTCMVTDFMPEDIYVEWTNNGKTELNYKNTEPVLDSDGSYFMYSKLRVEKKNWVERNSYSCSVVHEGLHNHHTTKSFSRTPGK
notes: Murine counterpart of G028 (N-terminal isoleucine zipper); The entry may include a leader
As for B14, the equilibrium dissociation constant (Kd) is 18.7 nM in [8] and 638 nM in test [1].
